{
  "source": "paper PMC7938364",
  "about": "“Multimeric antibodies from antigen-specific human IgM^+ memory B cells restrict Plasmodium parasites” (The Journal of Experimental Medicine, 2021)",
  "binders": {"B1": {"name": "MaliM03 m-IgG (antibody, V domains shown)", "VH": "QVQLQQWGAGLLKPSETLSLTCAVYGGSFSGYYWTWIRQPPGKGLEWIGEINNSGKTNYNPSLKSRVSISIDTSKNQFSLKVTSVTAADTAVYYCARGPQQHLEPPFDYWGHGTLVTVSS", "VL": "QSVLTQPPSASGTPGQRVTISCSGSNSNIATNYVCWYQQYPGTAPKPLIYRTDQRPSGVPDRFSGSKSGTSASLAISGLRSEDEADYYCATWDDSLSAWVFGGGTKLTVL", "notes": "VH of MaliM03, as the VH of m1; immunoglobulin gamma-1 heavy chain constant region (vector AbVec-hIgG1) with L309C; human IgM tail piece, 18 amino acids, added to the IgG constant region; as the light chain of m1; Self-assembles into multimers (negative-stain EM); also called multimeric IgG; modified IgG antibody; source: 293T cells, transient transfection, purified from supernatant (HiTrap …)"}},
  "target": "T1, recombinant P. falciparum 3D7 MSP1 (p19 fragment) (Plasmodium falciparum (3D7))",
  "T1 construct": "merozoite surface protein 1 of P. falciparum 3D7, the 19 kDa C-terminal fragment (MSP1-19, p19); Coated on ELISA plates and used in solution in the BLI without avidity; The ELISA methods say only 'recombinant P. falciparum MSP1'; also called MSP1-19; merozoite surface protein 1 (the 1-19 fragment)",
  "T1 chain": "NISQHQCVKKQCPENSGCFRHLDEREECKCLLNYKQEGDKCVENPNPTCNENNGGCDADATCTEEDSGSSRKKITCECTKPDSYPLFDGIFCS",
  "assay": "ELISA; plates coated with recombinant MSP1, AMA1 or OVA (each 5 µg/ml in PBS); purified recombinant antibodies at a maximum of 5-50 nM with 10-fold serial dilutions, 2 h room temperature or overnight 4°C; HRP anti-human IgG1",
  "conditions": "both partners purified",
  "data": [
    {"binder": "B1", "values": [
      {"measurement": "fold better binding than its monomeric form", "result": "~10", "unit": "fold"}
    ]}
  ]
}
